Consider 57 substances from patent publication US11292821B2, “Peptides and combination of peptides for use in immunotherapy against lung cancer, including NSCLC, SCLC and other cancers” (Immatics Biotechnologies GmbH, priority 2017, dated 2022).

The target of the test is HLA-B*07 (Homo sapiens, UniProt P01889). As to the kind of experiment: MHC binding assay (UV-ligand exchange, β2m ELISA). The source says: Candidate peptides for T cell based therapies according to the present invention were further tested for their MHC binding capacity (affinity). The individual peptide-MHC complexes were produced by UV-ligand exchange, where a UV-sensitive peptide is cleaved upon UV-irradiation, and exchanged with the peptide of interest as analyzed. Only peptide candidates that can effectively bind and stabilize the peptide-receptive MHC molecules prevent dissociation of the MHC complexes. To determine the yield of the exchange reaction, an ELISA was performed based on the detection of the light chain (β2m) of stabilized MHC complexes. The assay was performed as generally described in Rodenko et al. (Rodenko et al., 2006).
96 well MAXISorp plates (NUNC) were coated over night with 2 ug/ml streptavidin in PBS at room temperature, washed 4× and blocked for 1 h at 37° C. in 2% BSA containing blocking buffer. […] Peptide-MHC monomers of the UV-exchange reaction were diluted 100-fold in blocking buffer. Samples were incubated for 1 h at 37° C., washed four times, incubated with 2 ug/ml HRP conjugated anti-β2m for 1h at 37° C., washed again and detected with TMB solution that is stopped with […]. Absorption was measured at 450 nm. Candidate peptides that show a high exchange yield (preferably higher than 50%, most preferred higher than 75%) are generally preferred for a generation and production of antibodies or fragments thereof, and/or T cell receptors or fragments thereof, as they show sufficient avidity to the MHC molecules and prevent dissociation of the MHC complexes.
In general terms: An ELISA detects its analyte on a solid surface through an enzyme-linked reagent.
Take “280 (VPISEEGTPVL; listed as Homo sapiens) [compound 280]”: the “Peptide exchange (peptide exchange yield, MHC class I binding score)” value (from here on “Peptide exchange”) is ““+++” (>50 = +++)”.

With “469 (YPENGVVQM; listed as Homo sapiens) [compound 469]”, the “Peptide exchange” value is recorded as ““++” (>20% = ++)”.

As to “284 (FPVTSIFHTF; listed as Homo sapiens) [compound 284]”, the “Peptide exchange” value is reported as ““++” (>20% = ++)”.

As for “238 (KPGPPWAAF; listed as Homo sapiens) [compound 238]”, the “Peptide exchange” value was ““++++” (>75% = ++++)”.

As for “468 (SPMYGQAGL; listed as Homo sapiens) [compound 468]”, the “Peptide exchange” value is ““++++” (>75% = ++++)”.

On to “234 (RAKNAGVTI; listed as Homo sapiens) [compound 234]”, for which the “Peptide exchange” value is listed as ““++++” (>75% = ++++)”.

For the substance “262 (SAYPQRLEI; listed as Homo sapiens) [compound 262]”, the “Peptide exchange” value was ““+” (>10% = +)”.

For “287 (APREEQQRSL; listed as Homo sapiens) [compound 287]”, the “Peptide exchange” value was ““+++” (>50 = +++)”.

Turning to “475 (RPHKPGLYL; listed as Homo sapiens) [compound 475]”, the “Peptide exchange” value is ““++++” (>75% = ++++)”.

“270 (APGPRFLVT; listed as Homo sapiens) [compound 270]”: the “Peptide exchange” value was ““++++” (>75% = ++++)”.

In the case of “470 (SPNSYFRVL; listed as Homo sapiens) [compound 470]”, the “Peptide exchange” value is on record as ““++++” (>75% = ++++)”.

In the case of “465 (VPRPIFSQL; listed as Homo sapiens) [compound 465]”, the “Peptide exchange” value is reported as ““++++” (>75% = ++++)”.

Regarding “467 (KPFSSFTSM; listed as Homo sapiens) [compound 467]”, the “Peptide exchange” value is on record as ““++++” (>75% = ++++)”.

For “254 (NPFPHLITL; listed as Homo sapiens) [compound 254]”, the “Peptide exchange” value is listed as ““++++” (>75% = ++++)”.

As to “275 (APHPPLSVV; listed as Homo sapiens) [compound 275]”, the “Peptide exchange” value is ““+++” (>50 = +++)”.

Regarding “279 (SPARASPAL; listed as Homo sapiens) [compound 279]”, the “Peptide exchange” value is on record as ““+++” (>50 = +++)”.

On to “260 (YPQHPGLNA; listed as Homo sapiens) [compound 260]”, for which the “Peptide exchange” value was ““+++” (>50 = +++)”.

In the case of “272 (MPLPWSLALPL; listed as Homo sapiens) [compound 272]”, the “Peptide exchange” value was ““++++” (>75% = ++++)”.

Consider “289 (VPENHSVAL; listed as Homo sapiens) [compound 289]”, for which the “Peptide exchange” value is ““++++” (>75% = ++++)”.

Take “255 (MPLLENLYL; listed as Homo sapiens) [compound 255]”: the “Peptide exchange” value is recorded as ““++++” (>75% = ++++)”.

In the case of “278 (HPMIDINGIIVF; listed as Homo sapiens) [compound 278]”, the “Peptide exchange” value was ““++” (>20% = ++)”.

On to “230 (VPLPAGGGTVL; listed as Homo sapiens) [compound 230]”, for which the “Peptide exchange” value is ““+++” (>50 = +++)”.

Turning to “459 (RPMQQARAQL; listed as Homo sapiens) [compound 459]”, the “Peptide exchange” value is listed as ““+++” (>50 = +++)”.

Regarding “243 (RPIENRILIL; listed as Homo sapiens) [compound 243]”, the “Peptide exchange” value is ““++++” (>75% = ++++)”.

For the substance “240 (SPREVTTVL; listed as Homo sapiens) [compound 240]”, the “Peptide exchange” value is ““++++” (>75% = ++++)”.

Regarding “269 (APRAPRLML; listed as Homo sapiens) [compound 269]”, the “Peptide exchange” value is on record as ““++++” (>75% = ++++)”.

As for “283 (RPHSLSSEL; listed as Homo sapiens) [compound 283]”, the “Peptide exchange” value is on record as ““++++” (>75% = ++++)”.

As to “288 (FPQKFIDLL; listed as Homo sapiens) [compound 288]”, the “Peptide exchange” value is listed as ““++” (>20% = ++)”.

Turning to “295 (KPEGTRIAV; listed as Homo sapiens) [compound 295]”, the “Peptide exchange” value was ““++++” (>75% = ++++)”.

With “291 (SPQRLRGLL; listed as Homo sapiens) [compound 291]”, the “Peptide exchange” value was ““++++” (>75% = ++++)”.

Turning to “282 (MPQIETRVIL; listed as Homo sapiens) [compound 282]”, the “Peptide exchange” value is reported as ““+++” (>50 = +++)”.

As for “259 (RPPAAGLRGISL; listed as Homo sapiens) [compound 259]”, the “Peptide exchange” value is ““++++” (>75% = ++++)”.

“239 (YVPSASLFML; listed as Homo sapiens) [compound 239]”: the “Peptide exchange” value is given as ““++++” (>75% = ++++)”.

Take “257 (LPRIPFADV; listed as Homo sapiens) [compound 257]”: the “Peptide exchange” value was ““++++” (>75% = ++++)”.

With “471 (KPRPDVTNEL; listed as Homo sapiens) [compound 471]”, the “Peptide exchange” value is ““++++” (>75% = ++++)”.

Turning to “268 (YPLFRGINL; listed as Homo sapiens) [compound 268]”, the “Peptide exchange” value is ““++++” (>75% = ++++)”.

As to “281 (RPRAPVTPA; listed as Homo sapiens) [compound 281]”, the “Peptide exchange” value is ““++++” (>75% = ++++)”.

Consider “236 (RVRGGEDGDRAL; listed as Homo sapiens) [compound 236]”, for which the “Peptide exchange” value is listed as ““++++” (>75% = ++++)”.

As to “251 (VPRSSGQTV; listed as Homo sapiens) [compound 251]”, the “Peptide exchange” value was ““++++” (>75% = ++++)”.

As for “271 (MPLPWSLALP; listed as Homo sapiens) [compound 271]”, the “Peptide exchange” value was ““+++” (>50 = +++)”.

As for “273 (MPLLWLRGF; listed as Homo sapiens) [compound 273]”, the “Peptide exchange” value is reported as ““++” (>20% = ++)”.

On to “464 (YPRPGTPAA; listed as Homo sapiens) [compound 464]”, for which the “Peptide exchange” value is given as ““++++” (>75% = ++++)”.

“253 (RVIDAVRFTL; listed as Homo sapiens) [compound 253]”: the “Peptide exchange” value was ““+++” (>50 = +++)”.

For “267 (HPELVNHIVF; listed as Homo sapiens) [compound 267]”, the “Peptide exchange” value is given as ““++” (>20% = ++)”.

On to “229 (VPLPAGGGTV; listed as Homo sapiens) [compound 229]”, for which the “Peptide exchange” value was ““+++” (>50 = +++)”.

For the substance “246 (TPLPAVIVL; listed as Homo sapiens) [compound 246]”, the “Peptide exchange” value was ““++++” (>75% = ++++)”.

With “276 (LPRAGGAFL; listed as Homo sapiens) [compound 276]”, the “Peptide exchange” value is listed as ““+++” (>50 = +++)”.

“265 (SPRQPPRLV; listed as Homo sapiens) [compound 265]”: the “Peptide exchange” value was ““++++” (>75% = ++++)”.

Consider “247 (RALLARLLL; listed as Homo sapiens) [compound 247]”, for which the “Peptide exchange” value is ““+++” (>50 = +++)”.

For “227 (YPRGNHWAVGH; listed as Homo sapiens) [compound 227]”, the “Peptide exchange” value was ““++++” (>75% = ++++)”.

“261 (APSARVGVC; listed as Homo sapiens) [compound 261]”: the “Peptide exchange” value is ““+++” (>50 = +++)”.

On to “263 (HPAPYGDLL; listed as Homo sapiens) [compound 263]”, for which the “Peptide exchange” value is listed as ““++++” (>75% = ++++)”.

In the case of “466 (APYKSVTSL; listed as Homo sapiens) [compound 466]”, the “Peptide exchange” value was ““++++” (>75% = ++++)”.

“286 (VPTLRSEL; listed as Homo sapiens) [compound 286]”: the “Peptide exchange” value is on record as ““++++” (>75% = ++++)”.

Turning to “258 (LPRGPLASL; listed as Homo sapiens) [compound 258]”, the “Peptide exchange” value is ““++++” (>75% = ++++)”.

For “235 (MPLKHYLLL; listed as Homo sapiens) [compound 235]”, the “Peptide exchange” value is listed as ““++++” (>75% = ++++)”.

As for “290 (APYRPPDISL; listed as Homo sapiens) [compound 290]”, the “Peptide exchange” value was ““++++” (>75% = ++++)”.
